Results as given in patent US20260217849A1 (SHANGHAI HUAOTA BIOPHARMACEUTICAL, published 2026).

Columns and labels:
[1] = target: T1, human CD73 antigen protein (ACRO Biosystems, Catalog No. CD3-H52H7) (human, UniProt P21589 27-547); assay: SPR BIAcore 8k, CD73 captured as ligand, 900698 added first (competitor), then 900725
T1 construct: Bought protein; also called Human CD73 dimer protein; human CD73 protein
T1 sequence (looked up): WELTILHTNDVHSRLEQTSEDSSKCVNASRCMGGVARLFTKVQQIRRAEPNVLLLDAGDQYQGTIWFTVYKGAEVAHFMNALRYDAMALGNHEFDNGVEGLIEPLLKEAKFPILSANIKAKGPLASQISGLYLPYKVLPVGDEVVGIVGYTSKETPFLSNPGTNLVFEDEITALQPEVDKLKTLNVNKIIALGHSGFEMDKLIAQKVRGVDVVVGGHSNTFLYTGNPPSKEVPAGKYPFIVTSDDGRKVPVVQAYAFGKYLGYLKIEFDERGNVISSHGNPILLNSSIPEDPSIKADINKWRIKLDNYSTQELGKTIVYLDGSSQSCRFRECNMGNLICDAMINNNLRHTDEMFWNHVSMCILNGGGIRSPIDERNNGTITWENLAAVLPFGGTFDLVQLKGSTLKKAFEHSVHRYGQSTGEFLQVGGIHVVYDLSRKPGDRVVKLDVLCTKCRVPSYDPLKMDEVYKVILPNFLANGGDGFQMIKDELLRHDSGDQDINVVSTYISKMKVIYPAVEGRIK
Excerpt: (§1) First, the human CD73 antigen protein (manufacturer: ACRO Biosystems, Catalog No. CD3-H52H7) was captured as a ligand using BIAcore 8k, and then the antibodies were used as analytes.

[2] = target: T1, human CD73 antigen protein (ACRO …); assay: SPR BIAcore 8k, CD73 captured as ligand, analyte 1 buffer, analyte 2 900725
Excerpt: as §1

[3] = target: T1, human CD73 antigen protein (ACRO …); assay: SPR BIAcore 8k, CD73 captured as ligand, 900725 added first (competitor), then 900698
Excerpt: as §1

[4] = target: T1, human CD73 antigen protein (ACRO …); assay: SPR BIAcore 8k, CD73 captured as ligand, analyte 1 buffer, analyte 2 900698
Excerpt: as §1

Binder | Kd [1] | koff [1] | kon [1] | Kd [2] | koff [2] | kon [2] | Kd [3] | koff [3] | kon [3] | Kd [4] | koff [4] | kon [4]
900725 (antibody, human IgG1, kappa, L234A L235A, V domains shown, also called component of the anti-CD73 cocktail antibody) VH: QVQLVQSGAEVKKPGASVKLSCKASGYTFTSYWIHWVRQAPGQGLEWIGMIHPNSGSTYYNEKFKGRATLTVDKSTSTAYMELSSLRSEDTAVYYCARYYGSDYEWYFDVWGQGTTVTVSS VL: DIQMTQSPSSMSASVGDRVTITCKASQNVRTAVVWYQQKPGKAPKALIYLASNRHTGVPDRFSGSGSGTDFTLTISSLQPEDFATYFCLQHWNYPYTFGQGTKLEIKR | 4.16 nM | 0.00591 s⁻¹ | 1.42e+06 M⁻¹ s⁻¹ | 3.01 nM | 0.00452 s⁻¹ | 1.5e+06 M⁻¹ s⁻¹ |  |  |  |  |  | 
900698 (antibody, human IgG1, kappa, L234A L235A, V domains shown, also called component of the anti-CD73 cocktail antibody) VH: QVQLVESGGGLVKPGGSLRLSCAASGFTFSKYAMSWIRQAPGKGLEWVAEISSGGGYINYADSVKGRFTISRDNAKNSLYLQMNSLRAEDTAVYYCARAIYYYGSSYNYYAMDYWGQGTTVTVSS VL: DIQMTQSPSSLSASVGDRVTITCRASQDVGTAEAWYQQKPGKAPKLLIYWASTRHTGVPSRFSGSGSGTDFTLTISSLQPEDFATYYCQQYSSYPLTFGQGTKLEIKR |  |  |  |  |  |  | 12.6 nM | 0.0017 s⁻¹ | 135000 M⁻¹ s⁻¹ | 7.3 nM | 0.00114 s⁻¹ | 156000 M⁻¹ s⁻¹
